The source of these data is patent US9777044B2, “GLUT-1 as a receptor for HTLV envelopes and its uses” (CENTRE NATIONAL DE LA RECHERCHE SCIENTIFIQUE (CNRS), priority 2003, dated 2017).

Assay [1] addresses T1, GLUT-1 (Homo sapiens, UniProt P11166).
T1 construct: factor Xa cleavage site (C); His (C); expressed in transfected cells
T1 sequence (P11166 1-492): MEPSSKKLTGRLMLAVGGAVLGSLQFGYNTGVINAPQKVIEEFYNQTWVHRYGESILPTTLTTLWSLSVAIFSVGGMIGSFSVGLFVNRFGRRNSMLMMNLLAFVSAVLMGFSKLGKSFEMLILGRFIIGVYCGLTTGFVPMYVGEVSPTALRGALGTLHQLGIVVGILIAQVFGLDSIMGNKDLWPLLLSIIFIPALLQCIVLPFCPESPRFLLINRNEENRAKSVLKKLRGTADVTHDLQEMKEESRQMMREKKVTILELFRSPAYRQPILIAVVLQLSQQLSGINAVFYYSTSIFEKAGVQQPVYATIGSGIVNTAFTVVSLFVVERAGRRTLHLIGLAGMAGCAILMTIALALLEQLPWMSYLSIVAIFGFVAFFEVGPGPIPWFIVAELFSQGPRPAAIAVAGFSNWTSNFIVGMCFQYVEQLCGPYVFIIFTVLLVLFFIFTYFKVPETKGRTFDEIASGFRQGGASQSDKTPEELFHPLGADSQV
Kind of assay: Immunoprecipitation of GLUT-1-HA with anti-rabbit-Fc beads. Type of assay: binding. Conditions: co-expression with GLUT-1 in 293T cells, probed with anti-HA antibody. The source says: FIGS. 4a-4c GLUT-1 is a receptor for HTLV envelopes. FIG. 4a, Binding of H1RBD, H2RBD, H2RBD D102A mutant, and ARBD to control 293T cells or 293T cells overexpressing either GLUT-1 or PiT2. FIG. 4b, Binding of H2RBD-EGFP to cells overexpressing GLUT-1-HA or GLUT-3-HA, and corresponding immunoblots using an anti-HA antibody. FIG. 4c, Immunoprecipitation of GLUT-1-HA from 293T cells transfected with either an irrelevant construct, GLUT-1 alone, H1RBD alone, H1RBD Y114A alone, GLUT-1 with H1RBD or GLUT-1 with H1RBD Y114A expression vectors Immunoprecipitation was performed using anti-rabbit-Fc beads and probed with an anti-HA antibody. Total cell extracts were blotted using an anti-rabbit Fc or an anti-HA antibody.
In order to directly test the ability of HTLV envelopes to bind GLUT-1, we derived a tagged GLUT-1 expression vector and overexpressed this protein in HeLa cells. […] GLUT-3 is the closest isoform to GLUT-1, and transports glucose with kinetics similar to that of GLUT-1. Thus, we derived a tagged GLUT-3 expression vector. […] To determine if GLUT-1 transfected cells were directly responsible for the observed increased in H1RBD binding, we derived fluorescent tagged GLUT-1 and GLUT-3 to uniquevocally identity GLUT-overexpressing cells in the course of our FACS analysis. […] To this end, we evaluated the ability of H1RBD to immunoprecipitate GLUT-1. […]

Assay [2] relates to 293T cells. Kind of assay: Hexose uptake assay: fructose. It counts as cell-based, human. Conditions: transfected 293T cells. On the procedure: Assay of hexose uptake. 2-deoxy-D[1-^3H]glucose, D[U-^14C]fructose and 3-O-[^14C]methyl-D-glucose were obtained from Amersham. Hexose uptake assay were adapted from Harrison et al. 1991). After transfection, approximately 250,000 were seeded/well in 24-well plates. […] Uptake was initiated by adding labeled hexoses to a final concentration of 0.1 mM (2 μCi/ml for 2-2-deoxy-D[1-^3H]glucose and 0.2 μCi/ml for D[U-^14C]fructose and 3-O-[^14C]methyl-D-glucose) and cells were incubated for 5′ additional minutes. Cells were then resuspended in 500 μl cold serum-free glucose-free DMEM, wash one time in serum-free glucose-free DMEM, and solubilized in 400 μl of 0.1% SDS. 3 μl was used for Bradford normalization, while the rest was used for detection of either ^3H or ^14C by liquid scintillation in a Beckman counter.

B1: H1RBD: first 215 residues of HTLV-1 SU fused to a C-terminal rabbit IgG Fc tag (rFc) (protein)
chain: DYSPSCCTLTIGVSSYHSKPCNPAQPVCSWTLDLLALSADQALQPPCPNLVSYSSYHATYSLYLFPHWIKKPNRNGGGYYSASYSDPCSLKCPYLGCQSWTCPYTGAVSSPYWKFQQDVNFTQEVSRLNINLHFSKCGFPFSLLVDAPGYDPIWFLNTEPSQLPPTAPPLLPHSNLDHILEPSIPWKSKLLTLVQVDVPRDCGCKPCICTVPEVSSVFIFPPKPKDVLTITLTPKVTCVVVDISKDDPEVQFSWFVDDVEVHTAQTQPREEQFNSTFRSVSELPIMHQDWLNGKEFKCRVNSAAFPAPIEKTISKTKGRPKAPQVYTIPPPKEQMAKDKVSLTCMITDFFPEDITVEWQWNGQPAENYKNTQPIMDTDGSYFVYSKLNVQKSNWEAGNTFTCSVLHEGLHNHHTEKSLSHSPGK
As for B1, in assay [1], the “detection of GLUT-1 upon immunoprecipitation with anti-rabbit-Fc-beads” value is “readily detected”. The Fructose uptake entry in assay [2] is reported as “not altered”.
